Experimental data as given in patent publication US11905525B2, “Reduction of elimination of immune responses to non-intravenous, e.g., subcutaneously administered therapeutic proteins” (ModernaTX, Inc., priority 2017, dated 2024).

Test system: accelerated blood clearance (ABC)
Assay: Accelerated blood clearance (ABC) upon subsequent administration of LNP with a B cell targeting agent
Type: in vivo
Settings: combination with the LNP

Rituximab: monoclonal antibody against the protein CD20
ABC upon subsequent administration of LNP: significantly reduced ABC
